From the supplement of paper PMC9170038

System: K4 kissing-loop RNA reporter
Assay: apparent KD of K4 kissing-loop reporter; higher = weaker reporter binding
Details: Eterna round: R107
Description: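 RNA-MaP round R107: designed RNA switches with theophylline, tryptophan, arginine or FMN aptamers are transcribed on-chip within common flanks. They are titrated with a labelled K4 kissing-loop RNA reporter in RNA-MaP buffer (100 mM Tris pH 7.5, 80 mM KCl, 4 mM MgCl2), without ligand or with the indicated ligand. Median apparent KD per design.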

[1] = input ligand: theophylline 20 uM
[2] = input ligand: tryptophan 2.4 mM
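Further: bound reporter read as fluorescence of individual clusters on recovered sequencing chips by microscopy, with normalized cluster intensities fitted with a binding model.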

Sequence	apparent KD of K4 kissing-loop reporter (input ligand: FMN 200 uM) [nM]	apparent KD of K4 kissing-loop reporter (input ligand: arginine 13.2 mM) [nM]	apparent KD of K4 kissing-loop reporter (input ligand: none) [nM]	apparent KD of K4 kissing-loop reporter [1] [nM]	apparent KD of K4 kissing-loop reporter [2] [nM]
GUAUGUGGAAACACGUACUUAUAUCCUAGGCAGGAUAUGCGGAAACGCAGAAGGGCCACCGGCGAGUUUAUCCAGUGAUGUUGGA [Ex FMN A 8]	251	253	294	271	245
GUCGGCCGCGCGCAAGCGCGGCCGGCCGAUACCAGCGCGCCGGCGCGCCCUUGGCAGCGGCGCCGAGUGAUGUUCGGCCUGACGU [#2 Same State - Theophylline A Attempt #7 (HarryS)]	710	538	704	601	917
GUCUGCGUCUCGGCCGCCACUCACUAGUGAUGUUAGUAAGGAGCGACUAGAGAAGUCCAGUUAAUGAGGACCGGGAGAAGCUCUU [Exclusion Tryptophan B GF 3]	122	133	137	106	117
GUCUGUGUACUAGGAUAUGGUUGCAGACAGUCAGGUCGCCUUUUCGGCGGCCAGUGAUGUUGGUGGCCAGAAGGAGUACGUGAAG [Biririge]	384	1580	1110	395	1480
GUGCGCGGUGCGGCCGCCACUCGGAUGCGAGUGAUGUUCGCGGGACGGACGCAAGUCCGUCAUUCGAGGACCGGGCAUGGCUGUA [#2 Same State - Tryptophan B Attempt #5 (HarryS)]	336	274	247	252	169
GUGUAACGAGGAAACCUCGUUACACCCUCACGAGGACCGGUACGGCCGCCACUCGAGAGCUCGUGAGGAGUGAUGUUCCUCGUGA	695	335	441	435	184
GUUAAUAGUAGUGAUGUUACAAUAGUUUGUGAGGAUAUCCCGAAAGGGAGAAGGCACAAACAAAUAGAUUCUCACAAAUAUUUAC [FMN A exclusion]	191	185	243	238	146
GUUGACAGACUGCAAAACUAGUCAACAGACUAGGAUAUCAGGAAACUGAGAAGGAGUCAAGUUGCAGUGAUGUUGCAAGAAUAAU [KL-SSFMN-A27]	137	182	173	214	136
GUUGUAUACUGAAGGAGCGAGUAGUGGAAACAUAAACUCAUUGCGAGUGAUGUUCGCAGUACUCAGGUAGGUCGCAGUAAUCGUA [Exclusion Arginine B Gf 10]	534	315	566	453	456
GUUUGCCGGUCCCGGAGUGAUGUUCCGGAUACCAGCAACUUCCUUUGCCCUUGGCAGCCGUAGCUAUACCGGGUGGCAGCUUCAG [Anresoenus]	111	89.5	104	110	111
GUUUGCCGGUUCCGGAGUGAUGUUCCGGAUACCAGCAACUUCCUUUGCCCUUGGCAGCCGUAGCUAUACCGGAUGGCAGCUUCAG [Arrexean]	96.1	82.7	89.3	86.7	95.4
UAACUCUUGCAGUGAUGUUGCAAGUAAGCUCAGGAUAUCAGGAAACUGAGAAGGGAGCAUCCUGAGCAACUGCAAGAGCUCAGAA [[K1]-[K2]-[F1]-[F2]-[F]'-[K]'-[F]''_Design1]	224	101	95.9	160	87.5
UAAGAGGACCACUGCGAGAGUCCUCGAAUACGAGGACCGGUACGGCCGCCACUCGAUAAUUUGUAGUGAUGUUGCAAGUAAGAAU [BrourdMod 7 - Jieux - Same State Tryptophan A]	50.3	64.5	42.1	61.9	31.8
UACGCCACAGACGUGGAGUACCUUGGGUCGAAGGAUAUCAGCAUUGUGAGAAGGUCGCCGAUUCUAAGUGAUGUUUAGAUCAGGG [theeternabot_sameState_KL_FMN_A_2]	132	275	446	567	409
UACUUAUAGUUAUUUCUAAAUUUAUUUAGUCAGGAUAUCGAAUAGUCGAGAAGGGACAUAAUCAAGUGAUGUUUGAUUAUUCAAA [JR_SSFMNA_Sub023]	64.8	96.1	84.8	88.8	69.6
UACUUAUAUUUCAACUUAAAUUAUUCAGAAGGAGCGUGAUCAUUCACAGGUAGGUCGCUGAACUAGUGAUGUUAGUUUUAAUUUU [JR_Nu_ExcArginiA_Sub022]	66.3	127	76.5	116	62.2
UAGCGCAACCUGCUUACGUAUGAGCCGGAAGGAGCGGCAGAAUUGCCAGGUAGGUCGCCGGCCCAGUGAUGUUGGGAUGGUGUGG [Usritiis]	265	226	252	223	228
UAGGAGUGAUGUUCCAUAUGUAAGGCCGAAGGAGCGGCAUUAUAGCCAGGUAGGUCGCGGCAGUACGUACCAGUGAUGUUGGAAA [KL-SSArg-A5]	173	94.9	150	119	116
UAGUCAUACAGAGGAUAUCGUAUGAGUGAUGUUCAUACGACAUAAUCAAAUUGUAUUGAUGUUCGACGAGAAGGCUGUAUGACUA [FMN B Ex t1]	221	103	124	117	124
UAUAGAAACGUCCUAUCAAUAAAAUGGGAAGGAGCGAGGAAGAACUCAGGUAGGUCGCCCAAUAACCUUAGUGAUGUUAAGGAAA [Version 1]	126	112	137	156	117
UAUAGAGUGACGGCCGCCACUAUUGUGAUUUAAUUGUUAGAGUGAUGUUUUGUUGUUUGAUUUUGUAGGACCGGGUUAUAUGUUA [ecewzmullin]	1050	768	976	854	802
UAUAUAGUGACGGCCGCCACUAUAGUAAUGUUUUUGUUAGAGUGAUGUUUUGUUUUUUAAUUUUAUAGGACCGGGUUAUAUGUUA [llpmullin]	360	218	374	376	240

Sequence	apparent KD of K4 kissing-loop reporter (input ligand: FMN 200 uM) [nM]	apparent KD of K4 kissing-loop reporter (input ligand: arginine 13.2 mM) [nM]	apparent KD of K4 kissing-loop reporter (input ligand: none) [nM]	apparent KD of K4 kissing-loop reporter [1] [nM]	apparent KD of K4 kissing-loop reporter [2] [nM]
UAUGCUUGUGCUGAUACCAGUGUUAGUGAUGUUAGGACUGUCAGUAGGAUGCGUGCAUUUCACCCUUGGCAGCAGUAUCGCAGCA [theeternabot_exclusion_KL_Theo_B_48]	447	295	351	426	387
UAUGUACACGGGUAGUGAUACAUCGAGGAAGGAGCGUGCGCAGGCACAGGUAGGUCGCCUCAGCGCACGAGUGAUGUUCGUGGGC [Veti]	471	325	393	380	376
UAUUAAUUGUCAGGAUAUCGAAAUCGAGUGAUGUUCGUAAAUUAAUUAUUAUUAAUAAUAUUUAAACGAGAAGGGACAUUAUUUA [JR_SSFMNB_Sub001]	235	558	694	647	442
UAUUAAUUGUCAGGAUAUCGUAAACGAGUGAUGUUCGUAUAUCGACGAUAGUCGAUUCUAUCUAAACGAGAAGGGACAUUAUUUA [JR_SSFMNB_Sub008]	346	454	664	516	420
UCACUCAUGUGAAGGAGCGUGAGAAGACAUGAGUGAUGUUCAUGUCUAGACCAGCGUCUCUCACAGGUAGGUCGCACAUGAAAGG [Arg B SS t10]	128	105	121	100	121
UCCACGCUUCGAGGAUAUCGGAUUAGAGUGAUGUUCUAAAGACGCCCAGUGAUGUUGGAUGCGAUACGAGAAGGCGGUGGCGUGU [Same State FMN B GF6]	236	195	244	140	176
UCCUGCAGUCUGCCACGAAAGUGGAUUGAUACCAGAGUCGAAAGACUCCCUUGGCAGCGAGUGAUGUUCGAAGCAGGUAAAUAAA [MatMod 1 - Jieux - Exclusion - Theophylline A]	160	204	178	221	130
UCCUUUGUUGCCAGUGAUGUUGGACAGGAAGGAGCGGGCAUAAGCCCAGGUAGGUCGCCUGUCAACUUUCUUAUAGCCCGAAGGU [KL-XArg-A19]	441	352	368	424	370
UCGACUGUGUCGGCCGCCACUGGUAUAAACGGACUAUAACGACAUGAGUGAUGUUCAUGUUCGUCUAGGACCGGGACACAAUGUA [Tryp B Ex t3]	102	81.8	96.7	81.7	90
UCGAUAGAGAGUGAUGUUCUCGUAUCAGAUACCAGUCACGCGAGUGACCCUUGGCAGCUGAUGUACAGCUGAGAGUAGUAUUCGA [Theo A Ex t8]	90.1	104	90.5	129	89.6
UCGAUCGCUAGUGAUGUUGGUGUGCUACAUCGAGGACCGGUACGGCCGCCACUCGAGCCCGAGUAGAAGGGUGGGCUGCUAUGAA [theeternabot_sameState_KL_Trp_A_18]	1510	1030	1190	743	895
UCGCGUCUGUGAGGAUAUCAGAACAGAGUGAUGUUCUGUCAACGCCCAGUGAUGUUGGAUGCGAUCUGAGAAGGCACUGGGCGCA [Same State FMN B GF 9]	1060	865	1320	1700	1160
UCGUUAAAAGCGGCCGCCACUGCCAGAGCUCUGGAAAAGGCUGGAGUGAUGUUCUGCCUAGUAGACAGGACCGGGCUAUUGGAUU [theeternabot_sameState_KL_Trp_B_29]	667	422	609	588	594
UCUCAUCUCAGAAGGAGCGUGAGAGAAUAUUAGAAAUCGUCGAGUGAUGUUCGACGUCUCUCACAGGUAGGUCGCUGAGACGUCA [Arg B SS t9]	111	107	97.4	121	111
UCUGUUGUAUAUGAUACCAGCAGUGAGAGAUGAGAAGUAUAGUGAUGUUAUAUGAGAGAAUGCCCUUGGCAGCGUGUGCGUGUGG [SSTheophylB.aC]	105	98.3	83.2	100	76.9
UCUUUUGGCAUGGAUAGAAUGCCGACCGAUACCAGCAAAGUAGGAUGCCCUUGGCAGCGGAGUGAUGUUCCAUUGUCGCGGUUUG [theeternabot_exclusion_KL_Theo_A_48]	82.7	91.3	86.9	84.4	76.9
UGACAUUGCUCAGAUACCAGACAUGAGCAUCAGCCAUGUACCAAGAAAGUACAAUAAAAUGUCCCUUGGCAGCUGAGCAAUGUCU [TheoBX 8]	56.1	25.6	47.8	121	48.4
UGACAUUGCUCAGAUACCAGACAUGAGCAUCAGCCAUGUGCCAAAACGUACUAAAUAAAUGUCCCUUGGCAGCUGAGCAAUGUCU [TheoBX 13]	65	26.3	40.7	73.3	61.3
UGACUGGACUGAAGGAGCGCUGAAGGAGCGUAAGCAGUGAUGUUGCUUACAGGUAGGUCGCAGCAGGUAGGUCGCAGUCUAGUCU	93.5	78.7	93.4	90	99.6
UGACUGGAUGGAAGGAGCGCUAAACUCCUAGUGAUGUUAGGGAAAUGAGGCAAAGCCUCGAGGCAGGUAGGUCGCCAUCUAGUCU [FiskerMod 18 - Jieux - Same State - Arginine B]	160	121	155	148	144
UGAUACCAGACGGCCGCCACUACACCAGUCAAAGACUGGAUGUGAAAUUCGACCAGUGAUGUUGGUAGGACCGGGUCUGGUAUCU [TrypBX 8 #SwitchBubble #StaticStem]	383	313	379	347	591
